For assay [1], the target named is FLAG-β2 DAT8 LKI (rat (Rattus norvegicus) | human). In words: supported cell membrane sheets (SCMS), confocal microscopy, dissociation time course; PICK1 dissociation from sheets expressing LKV (two-state fit) or LKI (one-state fit).
Assay [2] concerns the target TAC-YFP-GluA2 (24 C-terminal residues of GluA2 on the IL-2 receptor α-subunit fused to YFP) (not stated | rat (Rattus norvegicus)). As to the kind of experiment: supported cell membrane sheets (SCMS), confocal microscopy, saturation binding; labelled PICK1 in sheet buffer (120 mM KCl, 2 mM MgCl2, 0.1 mM CaCl2, 10 mM HEPES, 30 mM glucose pH 7.35) overlaid for 2 h on ice on sheets from transfected HEK293 GripTite cells; PICK1 signal divided by receptor signal; apparent affinity (Kd*), headed EC50 in the tables.

Assay [3] has as its target TAC-YFP-DAT C24 (C-terminus of the dopamine transporter on TAC-YFP) (not stated | not stated (human DAT is named for the β2-DAT8 constructs)). The description is as above.
Assay [4] concerns the target FLAG-β2 DAT8 LKI (rat (Rattus norvegicus) | human). The assay is described as above.
Assay [5] concerns the target FLAG-β2 DAT8 LKA (rat (Rattus norvegicus) | human). The description is as above.
The target in assay [6] is FLAG-β2 DAT8 LKI (rat (Rattus norvegicus) | human). In words: supported cell membrane sheets (SCMS), confocal microscopy, association time course; PICK1 binding as a function of incubation time; PICK1 100 nM for LKV and LKI.
In assay [7] the target is TAC-YFP-DAT C24 (C-terminus of the dopamine transporter on TAC-YFP) (not stated | not stated (human DAT is named for the β2-DAT8 constructs)). The description is as above.
Assay [8] addresses FLAG-β2 DAT8 LKI (rat (Rattus norvegicus) | human). Described as above. The source holds these as a separate data set.
Assay [9] shares this target. In words: supported cell membrane sheets (SCMS), confocal microscopy, saturation binding of exchanged dimers; monomers purified in 0.1% TX-100, mixed and diluted at least 100-times to form WT/WT or WT/A87L dimers (A87L in 4 times excess); sheets expressing LKV or LKI; read in the WT and the A87L channel; apparent (Kd*).
Assay [10] deals with Oregon Green-labeled DAT C13 peptide (not stated (human DAT is named for the β2-DAT8 constructs)). As to the kind of experiment: fluorescence polarisation; saturation: PICK1 diluted to various concentrations, 20 nM OrG DAT C13; 50 mM Tris pH 7.4, 125 mM NaCl, 1 mM DTT, 0.01% Triton X-100; 30 min on ice. A general note: Polarisation of emitted light reports the rotation of a fluorescent probe.

Assay [11] concerns the target TAC-YFP-DAT C24 (C-terminus of the dopamine transporter on TAC-YFP) (not stated | not stated (human DAT is named for the β2-DAT8 constructs)). As to the kind of experiment: supported cell membrane sheets (SCMS), confocal microscopy, competition binding; 100 nM labelled SNAP-PICK1 premixed with increasing unlabelled PICK1 WT, 120 min, on sheets expressing TAC-YFP-DAT; half maximal binding reported as Ki*.

One may read the EC50 as the concentration at which the effect is half-maximal. Broadly, the Kd is the concentration at which binding is half-saturated. Higher therefore signals weaker binding. A word on the IC50: it is the concentration at which inhibition is half-maximal. Higher therefore signals weaker potency.

Read-outs that look alike come from different tables or passages of the source.

“SNAP-PICK1 WT (PICK1 with an N-terminal SNAP-tag, fluorescently labelled) (from UniProt Q9EP80 1-416) (natural protein)” gave a dissociation half-life in assay [1] of 7.18 h. For the same substance, the EC50 in assay [2] stood at 73 nM; in assay [3], 47 nM; in [4], 29 nM; in assay [5], 59 nM. In assay [4], the Kd* (apparent affinity) worked out at 39 nM. For the same substance, the time to half maximum binding in [6] is 11 min; in [7] it was 19 min; in assay [8], 14 min.
As for “PICK1 WT/A87L heterodimer (from UniProt Q9EP80 1-416; Q9EP80 1-416) (complex)”, in [9], the concentration for a half-maximal effect (EC50) is 123 nM.
In turn, “PICK1 WT without SNAP-tag (from UniProt Q9EP80 1-416) (natural protein)” had a Kd in assay [10] of 9000 nM. The substance further gave a 50% inhibitory concentration (IC50) in [11] of 29 nM.
